Literature values, collected in publication PMC9558124.

Biological target: PEX19 (Homo sapiens) (UniProt P40855)
UniProt P40855, sequence (P40855 2-296): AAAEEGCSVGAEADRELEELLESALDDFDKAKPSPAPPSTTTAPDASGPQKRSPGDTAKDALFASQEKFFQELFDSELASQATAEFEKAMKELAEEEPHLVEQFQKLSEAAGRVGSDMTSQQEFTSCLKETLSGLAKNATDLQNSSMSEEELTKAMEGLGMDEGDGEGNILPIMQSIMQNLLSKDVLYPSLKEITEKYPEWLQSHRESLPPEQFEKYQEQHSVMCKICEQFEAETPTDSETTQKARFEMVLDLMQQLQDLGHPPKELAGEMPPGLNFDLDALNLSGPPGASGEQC

## PEX3 CTD (from UniProt P56589)
  Kd: 10 nM
